The source of these data is PMC5940780, “Functional insights into the interplay between DNA interaction and metal coordination in ferric uptake regulators” (Scientific Reports, 2018).

In data set [1] the target is T1, CjFur R20E R20E (Campylobacter jejuni NCTC11168?) (UniProt P0C631).
T1 sequence: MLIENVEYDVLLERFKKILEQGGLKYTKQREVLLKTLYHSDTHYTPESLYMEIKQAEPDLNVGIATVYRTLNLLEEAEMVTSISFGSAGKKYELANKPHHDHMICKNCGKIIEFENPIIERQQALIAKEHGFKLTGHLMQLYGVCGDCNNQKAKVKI
Kind of data set: EMSA. Particulars: 20 mM Bis-Tris borate pH 7.4, 50 mM KCl, 3 mM MgCl2, 5% glycerol, 0.1% Triton X-100, 0.1 ug poly dI-dC, 2 nM DNA, 45 min on ice; holo: +50 uM MnCl2 (100 uM in …). On the technique in general: In EMSA bound probe runs differently from free probe, usually more slowly.

The target of data set [2] is T2, CjFur K28E K28E (Campylobacter jejuni NCTC11168?) (UniProt P0C631).
T2 sequence: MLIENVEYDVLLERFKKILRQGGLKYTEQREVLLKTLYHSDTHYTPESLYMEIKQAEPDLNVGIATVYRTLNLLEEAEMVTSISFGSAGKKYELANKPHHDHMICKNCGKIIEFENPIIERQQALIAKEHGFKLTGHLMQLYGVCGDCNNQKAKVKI
In words: EMSA. The following applies: 20 mM Bis-Tris borate pH 7.4, 50 mM KCl, 3 mM MgCl2, 5% glycerol, 0.1% Triton X-100, 0.1 ug poly dI-dC, 2 nM DNA, 45 min on ice; holo: +50 uM MnCl2 (100 uM in …).

In data set [3] the target is T3, CjFur Y68A Y68A (Campylobacter jejuni NCTC11168?) (UniProt P0C631).
T3 sequence: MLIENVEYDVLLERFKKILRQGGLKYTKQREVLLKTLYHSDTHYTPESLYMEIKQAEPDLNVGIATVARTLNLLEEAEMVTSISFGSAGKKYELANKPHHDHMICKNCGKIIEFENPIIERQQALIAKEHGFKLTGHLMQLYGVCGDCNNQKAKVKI
Kind of data set: EMSA. Particulars: 20 mM Bis-Tris borate pH 7.4, 50 mM KCl, 3 mM MgCl2, 5% glycerol, 0.1% Triton X-100, 0.1 ug poly dI-dC, 2 nM DNA, 45 min on ice; holo: +50 uM MnCl2 (100 uM in …).

Data set [4] addresses T4, CjFurΔS3 H99A;H137A (Campylobacter jejuni NCTC11168?) (UniProt P0C631).
T4 sequence: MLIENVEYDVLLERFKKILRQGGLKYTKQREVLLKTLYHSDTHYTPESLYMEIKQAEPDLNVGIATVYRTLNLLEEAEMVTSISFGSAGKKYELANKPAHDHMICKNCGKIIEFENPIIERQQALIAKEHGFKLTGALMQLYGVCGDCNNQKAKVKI
In words: EMSA. Particulars: 20 mM Bis-Tris borate pH 7.4, 50 mM KCl, 3 mM MgCl2, 5% glycerol, 0.1% Triton X-100, 0.1 ug poly dI-dC, 2 nM DNA, 45 min on ice; holo: +50 uM MnCl2 (100 uM in …).

Data set [5] has as its target T5, CjFur R69E R69E (Campylobacter jejuni NCTC11168?) (UniProt P0C631).
T5 sequence: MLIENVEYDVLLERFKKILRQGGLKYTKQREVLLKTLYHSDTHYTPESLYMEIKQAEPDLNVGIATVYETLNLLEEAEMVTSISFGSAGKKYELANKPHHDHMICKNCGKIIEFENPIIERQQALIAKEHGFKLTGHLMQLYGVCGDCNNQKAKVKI
In words: EMSA. Particulars: 20 mM Bis-Tris borate pH 7.4, 50 mM KCl, 3 mM MgCl2, 5% glycerol, 0.1% Triton X-100, 0.1 ug poly dI-dC, 2 nM DNA, 45 min on ice; holo: +50 uM MnCl2 (100 uM in …).

In data set [6] the target is T6, CjFur WT (Campylobacter jejuni NCTC11168?) (UniProt P0C631).
T6 sequence: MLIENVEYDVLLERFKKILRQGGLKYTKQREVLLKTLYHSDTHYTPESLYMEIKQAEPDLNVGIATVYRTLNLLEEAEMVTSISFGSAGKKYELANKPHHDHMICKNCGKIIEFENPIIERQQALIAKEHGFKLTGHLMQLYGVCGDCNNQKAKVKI
In words: EMSA. The following applies: 20 mM Bis-Tris borate pH 7.4, 50 mM KCl, 3 mM MgCl2, 5% glycerol, 0.1% Triton X-100, 0.1 ug poly dI-dC, 2 nM DNA, 45 min on ice; holo: +50 uM MnCl2 (100 uM in …).

The target in data set [7] is T7, CjFur K17E K17E (Campylobacter jejuni NCTC11168?) (UniProt P0C631).
T7 sequence: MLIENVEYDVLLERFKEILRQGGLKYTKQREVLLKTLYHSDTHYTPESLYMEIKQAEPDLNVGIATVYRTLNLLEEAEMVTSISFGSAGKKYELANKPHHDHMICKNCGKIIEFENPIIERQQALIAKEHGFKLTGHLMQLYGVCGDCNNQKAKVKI
Kind of data set: EMSA. The following applies: 20 mM Bis-Tris borate pH 7.4, 50 mM KCl, 3 mM MgCl2, 5% glycerol, 0.1% Triton X-100, 0.1 ug poly dI-dC, 2 nM DNA, 45 min on ice; holo: +50 uM MnCl2 (100 uM in …).

The target in data set [8] is T8, CjFur K25E K25E (Campylobacter jejuni NCTC11168?) (UniProt P0C631).
T8 sequence: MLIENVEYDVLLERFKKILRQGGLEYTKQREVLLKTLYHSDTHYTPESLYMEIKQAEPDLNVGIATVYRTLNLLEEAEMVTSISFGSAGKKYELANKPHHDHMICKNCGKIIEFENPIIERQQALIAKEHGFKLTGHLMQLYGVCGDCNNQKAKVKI
Kind of data set: EMSA. The following applies: 20 mM Bis-Tris borate pH 7.4, 50 mM KCl, 3 mM MgCl2, 5% glycerol, 0.1% Triton X-100, 0.1 ug poly dI-dC, 2 nM DNA, 45 min on ice; holo: +50 uM MnCl2 (100 uM in …).

Data set [9] has as its target T9, CjFur R30E R30E (Campylobacter jejuni NCTC11168?) (UniProt P0C631).
T9 sequence: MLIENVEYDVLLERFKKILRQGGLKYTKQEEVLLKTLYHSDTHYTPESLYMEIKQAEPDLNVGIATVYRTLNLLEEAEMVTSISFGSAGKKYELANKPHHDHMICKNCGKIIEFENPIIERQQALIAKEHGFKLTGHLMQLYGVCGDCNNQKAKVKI
In words: EMSA. The following applies: 20 mM Bis-Tris borate pH 7.4, 50 mM KCl, 3 mM MgCl2, 5% glycerol, 0.1% Triton X-100, 0.1 ug poly dI-dC, 2 nM DNA, 45 min on ice; holo: +50 uM MnCl2 (100 uM in …).

Data set [10] addresses T10, CjFurΔS2 H43A;H102A (Campylobacter jejuni NCTC11168?) (UniProt P0C631).
T10 sequence: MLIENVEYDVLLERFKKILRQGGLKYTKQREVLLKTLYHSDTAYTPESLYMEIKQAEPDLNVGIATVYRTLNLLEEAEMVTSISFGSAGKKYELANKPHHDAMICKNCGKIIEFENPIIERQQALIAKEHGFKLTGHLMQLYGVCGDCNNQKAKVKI
In words: EMSA. The following applies: 20 mM Bis-Tris borate pH 7.4, 50 mM KCl, 3 mM MgCl2, 5% glycerol, 0.1% Triton X-100, 0.1 ug poly dI-dC, 2 nM DNA, 45 min on ice; holo: +50 uM MnCl2 (100 uM in …).

Data set [11] concerns the molecule itself. Kind of data set: crystal structure; CjFur (7.5 ug/uL) crystallised in 0.1 M Bis-Tris pH 5.5, 0.25 M MgFormate, 25% PEG3350; molecular replacement; 1.8 A; form with zinc in S1 only (CjFurZn).
Data set [12] addresses T11, CjFur WT (UniProt P0C631 1-157).
T11 sequence: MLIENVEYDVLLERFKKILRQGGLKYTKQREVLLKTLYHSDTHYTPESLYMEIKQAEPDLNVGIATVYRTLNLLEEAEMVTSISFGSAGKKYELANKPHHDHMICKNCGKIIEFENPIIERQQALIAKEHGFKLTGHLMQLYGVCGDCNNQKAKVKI
In words: EMSA; holo, 50 uM MnCl2; 0-100 nM protein; two bound species; 20 mM Bis-Tris borate pH 7.4, 50 mM KCl, 3 mM MgCl2, 5% glycerol, 0.1% Triton X-100, 0.1 ug poly dI-dC, 2 nM DNA, 45 min on ice; holo: +50 uM MnCl2 (100 uM in gel); gel at 4 C. Particulars: protein: recombinant; tags: N-terminal Strep tag, TEV-cleaved; chain copies: 2; label: 5' Cy5 on both strands; blunt.

Data set [13] concerns the target CjFur R30E (UniProt P0C631 1-157, R30E). Kind of data set: EMSA; holo, 50 uM MnCl2; 0-100 nM protein; 20 mM Bis-Tris borate pH 7.4, 50 mM KCl, 3 mM MgCl2, 5% glycerol, 0.1% Triton X-100, 0.1 ug poly dI-dC, 2 nM DNA, 45 min on ice; holo: +50 uM MnCl2 (100 uM in gel); gel at 4 C. Particulars: protein: recombinant; tags: N-terminal Strep tag, TEV-cleaved; chain copies: 2; label: 5' Cy5 on both strands; blunt.

The target in data set [14] is CjFur K25E (UniProt P0C631 1-157, K25E). Described as above. Particulars: protein: recombinant; tags: N-terminal Strep tag, TEV-cleaved; chain copies: 2; label: 5' Cy5 on both strands; blunt.
Data set [15] deals with CjFur Y68A (UniProt P0C631 1-157, Y68A). The data set is described as above. The following applies: protein: recombinant; tags: N-terminal Strep tag, TEV-cleaved; chain copies: 2; label: 5' Cy5 on both strands; blunt.
The target in data set [16] is CjFur R69E (UniProt P0C631 1-157, R69E). The data set is described as above. The following applies: protein: recombinant; tags: N-terminal Strep tag, TEV-cleaved; chain copies: 2; label: 5' Cy5 on both strands; blunt.

As to “GGGAAAAGAGCCAAATTTAGGTGTTATCATCAATGCTGCTAATGAAGTTGGTGTTTATAATTTTTTAGAAAATAAAAGTGGATTTTTAGACATTGCTAAATGCATTTTTAAAGCCCTTGATCATTTTGGAGTACCTAAAATTTCAAGCATAGAAGAAGTTTTTGAGTATGATTTTAAAACAAGAGAGTATTTAAGGAGTTAAA (double strand) [cj1345c promoter region]”, the binding entry is recorded as “no binding” in data set [1]; “no binding” in data set [2]; “binds more weakly” in [3]; “binds more weakly” in [4]; “no binding” in [5]; “binds” in data set [6]. Also, the binding entry in data set [7] is listed as “binds more weakly”; in data set [8], “no binding”; in data set [9], “binds more weakly”; in [10] it was “binds more weakly”.

B1: Campylobacter jejuni Fur (ferric uptake regulator), wild type (natural protein)
chain: MLIENVEYDVLLERFKKILRQGGLKYTKQREVLLKTLYHSDTHYTPESLYMEIKQAEPDLNVGIATVYRTLNLLEEAEMVTSISFGSAGKKYELANKPHHDHMICKNCGKIIEFENPIIERQQALIAKEHGFKLTGHLMQLYGVCGDCNNQKAKVKI
notes: Ferric uptake regulator Fur of Campylobacter jejuni; wild type; in the crystal one zinc per protomer in the S1 site (C105, C108, C145, C148), S2 and S3 sites empty; Crystallised form is called CjFurZn (zinc only in S1); the earlier structure 4ETS of the same protein is called CjFurZn2 (zinc in S1 and S3); also called CjFur; CjFurZn; source: E. coli Rosetta, purified (Strep-TACTIN beads, TEV …)
On to B1, for which the “stoichiometry N” value in data set [11] was 2.

B2: katA promoter 60 bp (dsDNA)
DNA 1: ACTGAATAATTGCATTTTATTGATAATAAATTTCAAAATAAATTTAGTTTTTTTATATTA
DNA 2: TAATATAAAAAAACTAAATTTATTTTGAAATTTATTATCAATAAAATGCAATTATTCAGT
Turning to B2, the binding result is on record as “binds” in data set [12]; “no binding” in data set [13]; “no binding” in [14]; “no binding” in [15]; “no binding” in [16].

What is called stoichiometry N is a count of units in the complex or per binding partner.
